Literature values as cited in article PMC9852560.

Target: laminin gamma1 (UniProt P02468)
Test: SEC

Chain of UniProt P02468 (P02468 34-1607): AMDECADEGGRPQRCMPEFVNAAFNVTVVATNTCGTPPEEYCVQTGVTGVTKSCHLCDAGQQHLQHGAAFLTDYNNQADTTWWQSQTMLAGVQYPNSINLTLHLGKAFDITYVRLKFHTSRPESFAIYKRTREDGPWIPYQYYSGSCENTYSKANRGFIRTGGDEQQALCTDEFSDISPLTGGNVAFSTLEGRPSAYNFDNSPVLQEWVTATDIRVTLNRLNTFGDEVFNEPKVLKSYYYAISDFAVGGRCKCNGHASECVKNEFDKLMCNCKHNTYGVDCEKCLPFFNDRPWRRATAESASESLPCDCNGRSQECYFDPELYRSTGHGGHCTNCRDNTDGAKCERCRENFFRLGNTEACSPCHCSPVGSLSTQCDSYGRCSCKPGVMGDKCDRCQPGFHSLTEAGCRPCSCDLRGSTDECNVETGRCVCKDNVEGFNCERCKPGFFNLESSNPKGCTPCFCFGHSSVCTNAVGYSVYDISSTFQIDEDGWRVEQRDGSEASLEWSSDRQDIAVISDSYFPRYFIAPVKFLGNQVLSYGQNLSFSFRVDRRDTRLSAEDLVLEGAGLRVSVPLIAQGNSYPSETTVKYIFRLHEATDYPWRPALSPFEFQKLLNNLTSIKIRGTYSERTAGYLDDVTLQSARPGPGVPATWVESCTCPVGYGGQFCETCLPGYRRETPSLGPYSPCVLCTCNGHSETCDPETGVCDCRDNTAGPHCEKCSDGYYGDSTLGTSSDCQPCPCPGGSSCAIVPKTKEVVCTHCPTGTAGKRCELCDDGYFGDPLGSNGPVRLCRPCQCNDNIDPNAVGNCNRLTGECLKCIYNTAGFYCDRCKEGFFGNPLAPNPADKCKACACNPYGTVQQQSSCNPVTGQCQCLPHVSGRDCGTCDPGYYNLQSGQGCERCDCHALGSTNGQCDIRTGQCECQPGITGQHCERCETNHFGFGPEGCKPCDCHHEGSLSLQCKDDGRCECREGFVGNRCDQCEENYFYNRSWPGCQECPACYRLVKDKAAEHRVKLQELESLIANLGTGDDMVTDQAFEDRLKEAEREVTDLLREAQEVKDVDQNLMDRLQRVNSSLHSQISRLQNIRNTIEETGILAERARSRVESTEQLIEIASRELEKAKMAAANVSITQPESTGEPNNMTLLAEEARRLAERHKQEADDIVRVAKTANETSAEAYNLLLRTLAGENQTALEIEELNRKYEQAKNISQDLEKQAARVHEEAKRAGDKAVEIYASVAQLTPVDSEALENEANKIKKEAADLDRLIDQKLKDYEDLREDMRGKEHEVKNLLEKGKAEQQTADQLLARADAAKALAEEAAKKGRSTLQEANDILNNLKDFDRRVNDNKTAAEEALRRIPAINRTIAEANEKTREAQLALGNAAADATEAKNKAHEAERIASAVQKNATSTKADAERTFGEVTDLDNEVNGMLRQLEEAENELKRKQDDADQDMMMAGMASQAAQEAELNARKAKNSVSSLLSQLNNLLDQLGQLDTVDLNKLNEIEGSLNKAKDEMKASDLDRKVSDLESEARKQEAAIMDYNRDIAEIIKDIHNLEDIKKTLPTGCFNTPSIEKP

## laminin beta1 (from UniProt P02469)
  Kd: 21 µM
